Biological target: the molecule itself
Assay: crystal structure

B1: ERα-L372S/L536S double-mutant ligand-binding domain (LBD, amino acid residues 298–554) (domain or fragment, UniProt P03372 298-554, looked up)
chain: IKRSKKNSLALSLTADQMVSALLDAEPPILYSEYDPTRPFSEASMMGLLTNLADRELVHMINWAKRVPGFVDLTSHDQVHLLECAWLEILMIGLVWRSMEHPGKLLFAPNLLLDRNQGKCVEGMVEIFDMLLATSSRFRMMNLQGEEFVCLKSIILLNSGVYTFLSSTLKSLEEKDHIHRVLDKITDTLIHLMAKAGLTLQQQHQRLAQLLLILSHIRHMSNKGMEHLYSMKCKNVVPSYDLLLEMLDAHRLHAPTS
- binding result: binds

From doi:10.1101/2020.07.06.189977 (bioRxiv, 2020)
